Measured values from PMC3293846, “Optimization of Time-Course Experiments for Kinetic Model Discrimination” (PLoS ONE, 2012).

Substrate: CC(=O)C=O
Assay: purified protein
Format: biochemical, Saccharomyces cerevisiae
Settings: two-substrate sequential model (model 2), co-substrate glutathione, 70 mM potassium phosphate pH 6.5, 30°C, no glyoxalase II

B1: yeast glyoxalase I (EC 4.4.1.5); glyoxalase I from Saccharomyces cerevisiae (Sigma) (Saccharomyces cerevisiae S288C) (protein)
chain: MSTDSTRYPIQIEKASNDPTLLLNHTCLRVKDPARTVKFYTEHFGMKLLSRKDFEEAKFSLYFLSFPKDDIPKNKNGEPDVFSAHGVLELTHNWGTEKNPDYKINNGNEEPHRGFGHICFSVSDINKTCEELESQGVKFKKRLSEGRQKDIAFALGPDGYWIELITYSREGQEYPKGSVGNKFNHTMIRIKNPTRSLEFYQNVLGMKLLRTSEHESAKFTLYFLGYGVPKTDSVFSCESVLELTHNWGTENDPNFHYHNGNSEPQGYGHICISCDDAGALCKEIEVKYGDKIQWSPKFNQGRMKNIAFLKDPDGYSIEVVPHGLIA
notes: no tags or mass told
**Q.** How did the Km turn out when B1 was run?
**A.** 1.2 ± 0.19 mM

**Q.** And the kcat?
**A.** (1.7±0.38)×10^5 min^−1
